Source: patent US20230416798A1 (MBRACE THERAPEUTICS, published 2023)

B1: anti-GRP78 antibody clone F6 (antibody, IgG1, V domains shown)
VH: QVQLQQSGPGLVKPPQTLSLTCAISGDSVSSNSAAWNWIRQSPSRGLEWLGRTYYRSKWYNDYAVSVKSRITINPDTSKNQFSLQLNSVTPEDTAVYYCARDPYYYDSSGYYYFDAFDIWGQGTMVTVSS
VL: SYELTQPHSVSVAPGQTARITCGGDNIGSKSVHWYQQRPGQAPVLVVYDDSDRPSGIPERFSGSNSENTATLTISGVEAGDEADYYCQVWDSTSHHVVFGGGTKLTVL
notes: Fully human mAb formatted as full-length IgG1; also called F6 mAb; Anti-GRP78 (F6)
B2: anti-GRP78 antibody clone B4 (antibody, IgG1, V domains shown)
VH: QVRLQESGPGLVKPSQTLSLTCTVSGGSISSGGYYWSWIRQHPGKGLEWIGYIYYSGSTYYNPSLESRVTISVDTSKNQFSLKLSSVTAADTAVYYCARYSSIDAFEIWGQGTMVTVSS
VL: SYVLTQPPSVSVAPGKTATITCGGDDIGSKSVHWYQQKPGQAPVLVVYDDGDRPSGIPERFSGSNSGNTATLAISRVEAGDEADYYCQVWDSSSDQYVFGSGTKLTVL
notes: Fully human mAb formatted as full-length IgG1; also called B4 mAb

What was measured:
Assay in all cases: alanine scan, high-throughput flow cytometry; criterion for major residues
[1] = target: T1, GRP78 alanine scan variant at R279 (human, UniProt P11021 19-654)
T1 construct: Member of the alanine scan library of GRP78
T1 sequence (P11021 other isoform, or with tags, fused parts or gaps mutant limits assumed): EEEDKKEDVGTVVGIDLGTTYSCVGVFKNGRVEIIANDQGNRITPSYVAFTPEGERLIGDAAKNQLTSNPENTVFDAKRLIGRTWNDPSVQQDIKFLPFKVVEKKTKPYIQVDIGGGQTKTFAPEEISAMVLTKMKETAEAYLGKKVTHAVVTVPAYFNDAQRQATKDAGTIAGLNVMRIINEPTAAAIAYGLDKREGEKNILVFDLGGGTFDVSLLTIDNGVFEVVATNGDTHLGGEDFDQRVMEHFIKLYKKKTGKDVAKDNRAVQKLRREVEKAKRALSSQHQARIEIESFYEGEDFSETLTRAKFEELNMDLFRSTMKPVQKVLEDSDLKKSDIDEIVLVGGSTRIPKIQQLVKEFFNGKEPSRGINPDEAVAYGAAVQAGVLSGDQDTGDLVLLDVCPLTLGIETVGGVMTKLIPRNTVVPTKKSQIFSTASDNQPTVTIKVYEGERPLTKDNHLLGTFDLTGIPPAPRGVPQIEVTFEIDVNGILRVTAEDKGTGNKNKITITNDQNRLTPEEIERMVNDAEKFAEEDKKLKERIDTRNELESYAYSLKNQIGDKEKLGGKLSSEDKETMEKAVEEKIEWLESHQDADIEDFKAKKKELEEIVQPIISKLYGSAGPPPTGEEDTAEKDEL
Procedure: (§1) To characterize the binding properties of the antibodies described in Example 1 for GRP78, epitope mapping analysis was carried out by alanine scan mutagenesis. An alanine scan library of GRP78 was constructed. Each anti-GRP78 antibody was then screened for binding to each individual GRP78 variant, allowing identification of the target protein residues involved in antibody binding.
(§2) Binding of each test antibody to each GRP78 variant in the alanine scanning library was determined by high-throughput flow cytometry under high stringency conditions (e.g., increased pH, increased salinity, increased temperature and/or increased wash time). Also included in the experiment was a commercially-available monoclonal antibody, 1H11-1H7, which was verified to bind to WT GFR78 on cells and thus determined to be a suitable positive control under these conditions (Thermo Fisher Scientific, Waltham, MA). Antibody binding to each of the GRP78 variant as measured by the fluorescence signal (raw fluorescence data minus the background), was normalized to its binding to the wildtype (WT) GRP78. For each GRP78 variant, such normalized binding to the test antibodies was plotted relative to that to the control antibody.

[2] = target: T2, GRP78 alanine scan variant at R261 (human, UniProt P11021 19-654)
T2 construct: Member of the alanine scan library of GRP78
T2 sequence (P11021 other isoform, or with tags, fused parts or gaps mutant limits assumed): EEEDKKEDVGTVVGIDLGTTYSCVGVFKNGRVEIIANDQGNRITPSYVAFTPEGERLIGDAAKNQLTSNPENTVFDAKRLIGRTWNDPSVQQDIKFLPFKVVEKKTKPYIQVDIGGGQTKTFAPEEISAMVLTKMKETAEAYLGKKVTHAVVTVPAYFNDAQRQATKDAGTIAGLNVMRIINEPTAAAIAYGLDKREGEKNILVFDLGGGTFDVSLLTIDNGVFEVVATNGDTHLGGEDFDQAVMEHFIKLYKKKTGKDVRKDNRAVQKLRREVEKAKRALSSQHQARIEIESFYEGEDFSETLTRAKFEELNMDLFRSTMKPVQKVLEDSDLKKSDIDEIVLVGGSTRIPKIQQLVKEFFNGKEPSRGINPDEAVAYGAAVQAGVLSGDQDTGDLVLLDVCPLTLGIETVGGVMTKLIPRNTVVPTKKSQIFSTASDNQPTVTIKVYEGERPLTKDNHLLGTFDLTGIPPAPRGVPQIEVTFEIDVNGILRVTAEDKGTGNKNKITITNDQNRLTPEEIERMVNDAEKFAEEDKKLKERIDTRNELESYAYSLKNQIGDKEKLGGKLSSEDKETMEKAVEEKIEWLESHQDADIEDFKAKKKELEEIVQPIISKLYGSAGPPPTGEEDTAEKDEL
Procedure: as §1, §2

[3] = target: T3, GRP78 alanine scan variant at E329 (human, UniProt P11021 19-654)
T3 construct: Member of the alanine scan library of GRP78
T3 sequence (P11021 other isoform, or with tags, fused parts or gaps mutant limits assumed): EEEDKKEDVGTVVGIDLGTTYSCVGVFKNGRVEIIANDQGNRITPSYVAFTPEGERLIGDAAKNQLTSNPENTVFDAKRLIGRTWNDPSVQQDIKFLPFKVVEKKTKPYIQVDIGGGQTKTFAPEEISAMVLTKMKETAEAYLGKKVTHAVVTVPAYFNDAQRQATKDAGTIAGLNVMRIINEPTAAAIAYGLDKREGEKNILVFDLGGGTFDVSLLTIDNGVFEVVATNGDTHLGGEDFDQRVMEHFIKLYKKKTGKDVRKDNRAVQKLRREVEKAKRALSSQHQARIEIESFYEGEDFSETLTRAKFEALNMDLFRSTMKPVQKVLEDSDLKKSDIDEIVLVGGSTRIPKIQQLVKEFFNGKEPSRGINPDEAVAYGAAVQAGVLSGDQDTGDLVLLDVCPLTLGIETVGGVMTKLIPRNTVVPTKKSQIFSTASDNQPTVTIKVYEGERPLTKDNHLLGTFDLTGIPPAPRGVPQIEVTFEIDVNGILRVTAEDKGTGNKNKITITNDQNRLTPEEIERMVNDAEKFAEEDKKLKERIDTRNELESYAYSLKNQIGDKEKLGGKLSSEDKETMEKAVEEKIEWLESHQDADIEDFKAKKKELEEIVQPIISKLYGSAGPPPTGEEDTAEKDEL
Procedure: as §1, §2

[4] = target: T4, GRP78 alanine scan variant at H265 (human, UniProt P11021 19-654)
T4 construct: Member of the alanine scan library of GRP78
T4 sequence (P11021 other isoform, or with tags, fused parts or gaps mutant limits assumed): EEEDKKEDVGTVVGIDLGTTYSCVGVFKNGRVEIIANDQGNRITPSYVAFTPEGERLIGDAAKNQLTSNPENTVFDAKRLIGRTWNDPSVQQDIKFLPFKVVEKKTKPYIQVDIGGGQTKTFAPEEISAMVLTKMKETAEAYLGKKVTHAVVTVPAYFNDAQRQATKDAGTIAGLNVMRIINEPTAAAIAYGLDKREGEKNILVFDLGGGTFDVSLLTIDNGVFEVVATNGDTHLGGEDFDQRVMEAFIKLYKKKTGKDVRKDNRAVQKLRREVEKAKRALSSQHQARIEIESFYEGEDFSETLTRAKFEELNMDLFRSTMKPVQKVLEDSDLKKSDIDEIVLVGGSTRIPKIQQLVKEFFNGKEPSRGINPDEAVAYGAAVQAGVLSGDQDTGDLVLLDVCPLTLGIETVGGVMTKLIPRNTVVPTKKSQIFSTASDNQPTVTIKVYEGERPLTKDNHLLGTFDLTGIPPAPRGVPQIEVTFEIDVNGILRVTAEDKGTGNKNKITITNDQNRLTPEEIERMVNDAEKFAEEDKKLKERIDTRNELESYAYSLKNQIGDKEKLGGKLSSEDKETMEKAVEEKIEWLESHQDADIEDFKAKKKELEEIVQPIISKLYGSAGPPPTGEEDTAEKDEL
Procedure: as §1, §2

Binder	binding normalized to wildtype (WT) GRP78 [1]	binding normalized to wildtype (WT) GRP78 [2]	binding normalized to wildtype (WT) GRP78 [3]	binding normalized to wildtype (WT) GRP78 [4]
B1	< 20%	< 20%	–	–
B2	–	< 20%	< 20%	< 20%
